The values that follow come from the RNAGym collection of RNA variant scans (doi:10.7554/elife.90254).

B1: OR4K15 (parent)
chain: GUUAACGGUCAUAGGCCAUGGAAACUAGGAGCACCAUUUCGCUGCCAGUGAAGAAAUGAACAAAGAAAAUCUGGGCCAGGCAGGCAUCAAAAGAAAUAGUCUUGCGCUCAACCAGAAAGUCUGUAAUCAUUUUAAGGGUA

This series covers variants of B1. Kind of series: self-cleavage, relative activity (ratio to wild type); higher = more cleavage; in vitro, sequencing; the parent is a self-cleaving ribozyme.
With GUUAACGGUCAUAGGCCAUGGAAACUAGGAGCACCAUUUCGCUGCCAGUGAAGAAAUGAACAAAGAAAAUCUGGGCCAGGCAGGCAUCAAAAGAAAUAGUCUUGCGCUCAGCCAGAGAGUCUGUAAUCAUUUUAAGGGUA [A111G A117G], the self-cleavage turned out to be 0.01. Consider GUUAACGGUCAUAGGCCAUGGAAACUAGGAGCACCAUUUCGCUGCCAGUGAAGAAAUGAACAAAGAAAAUCUGGGCCAGGCAGGCAUCAAAAGAAAUAGUCUUGCGCUCUACCAGAAAGUCUGUAGUCAUUUUAAGGGUA [A110U A126G], for which the self-cleavage amounted to 1.05. Consider GUUAACGGUCAUAGGCCAUGGAAACUAGGAGCACCAUUUCGCUGCCAGUGAAGAAAUGAACAAAGAAAAUCUGGGCCAGGCAGGCAUCAAAAGAAAUAGUCUUGCGCUCGACCAGAAAGUCUGUAAUCAUUUUAAGGGAA [A110G U139A], for which the self-cleavage was 0.05. The figure for GUUAACGGUCAUAGGCCAUGGAAACUAGGAGCACCAUUUCGCUGCCAGUGAAGAAAUGAACAAAGAAAAUCUGGGCCAGGCAGGCAUCAAAAGAAAUAGUCUUGCGCUCGACCAGAAAGUCUGUAAUCAUUUCAAGGGUA [A110G U133C] is 0.25; for GUUAACGGUCAUAGGCCAUGGAAACUAGGAGCACCAUUUCGCUGCCAGUGAAGAAAUGAACAAAGAAAAUCUGGGCCAGGCAGGCAUCAAAAGAAAUAGUCUUGCGCUCGACCAGAAAGUCUGUAAACAUUUUAAGGGUA [A110G U127A] it is 0.15.

For GUUAACGGUCAUAGGCCAUGGAAACUAGGAGCACCAUUUCGCUGCCAGUGAAGAAAUGAACAAAGAAAAUCUGGGCCAGGCAGGCAUCAAAAGAAAUAGUCUUGCGCUCGACCAGAAAGUCUGUGAUCAUUUUAAGGGUA [A110G A125G], the self-cleavage turned out to be 0.07. With GUUAACGGUCAUAGGCCAUGGAAACUAGGAGCACCAUUUCGCUGCCAGUGAAGAAAUGAACAAAGAAAAUCUGGGCCAGGCAGGCAUCAAAAGAAAUAGUCUUGCGCUCGUCCAGAAAGUCUGUAAUCAUUUUAAGGGUA [A110G A111U], the self-cleavage amounted to 0.04. For GUUAACGGUCAUAGGCCAUGGAAACUAGGAGCACCAUUUCGCUGCCAGUGAAGAAAUGAACAAAGAAAAUCUGGGCCAGGCAGGCAUCAAAAGAAAUAGUCUUGCGCUCUACCAGACAGUCUGUAAUCAUUUUAAGGGUA [A110U A117C], the self-cleavage came out at 0.29.

With GUUAACGGUCAUAGGCCAUGGAAACUAGGAGCACCAUUUCGCUGCCAGUGAAGAAAUGAACAAAGAAAAUCUGGGCCAGGCAGGCAUCAAAAGAAAUAGUCUUGCGCUCGACCAGAAAGUCUGUAAUCAUUUUAAGGGUU [A110G A140U], the self-cleavage worked out at 0.18.

As to GUUAACGGUCAUAGGCCAUGGAAACUAGGAGCACCAUUUCGCUGCCAGUGAAGAAAUGAACAAAGAAAAUCUGGGCCAGGCAGGCAUCAAAAGAAAUAGUCUUGCGCUCGACCAGAAAGUCUGUAAUCAUUUUGAGGGUA [A110G A134G], the self-cleavage stood at 0.12.

With GUUAACGGUCAUAGGCCAUGGAAACUAGGAGCACCAUUUCGCUGCCAGUGAAGAAAUGAACAAAGAAAAUCUGGGCCAGGCAGGCAUCAAAAGAAAUAGUCUUGCGCUUAACCAGAAAGUCUGUAAUAAUUUUAAGGGUA [C109U C128A], the self-cleavage stood at 0.12. As for GUUAACGGUCAUAGGCCAUGGAAACUAGGAGCACCAUUUCGCUGCCAGUGAAGAAAUGAACAAAGAAAAUCUGGGCCAGGCAGGCAUCAAAAGAAAUAGUCUUGCGCUCAGCCAGAAAGUCUGUAAUCAUUUUAAGGGUA [A111G], the self-cleavage was 0.02. Consider GUUAACGGUCAUAGGCCAUGGAAACUAGGAGCACCAUUUCGCUGCCAGUGAAGAAAUGAACAAAGAAAAUCUGGGCCAGGCAGGCAUCAAAAGAAAUAGUCUUGCGCUCACCCAGAAAGUCUGUAAUCAUUUUAAGGGUA [A111C], for which the self-cleavage was found to be 0.01. The figure for GUUAACGGUCAUAGGCCAUGGAAACUAGGAGCACCAUUUCGCUGCCAGUGAAGAAAUGAACAAAGAAAAUCUGGGCCAGGCAGGCAUCAAAAGAAAUAGUCUUGCGCUCGACCAGAAAGUCCGUAAUCAUUUUAAGGGUA [A110G U122C] is 0.09. The same measure for GUUAACGGUCAUAGGCCAUGGAAACUAGGAGCACCAUUUCGCUGCCAGUGAAGAAAUGAACAAAGAAAAUCUGGGCCAGGCAGGCAUCAAAAGAAAUAGUCUUGCGCUCGACCAGAAAGUCGGUAAUCAUUUUAAGGGUA [A110G U122G]: 0.26; for GUUAACGGUCAUAGGCCAUGGAAACUAGGAGCACCAUUUCGCUGCCAGUGAAGAAAUGAACAAAGAAAAUCUGGGCCAGGCAGGCAUCAAAAGAAAUAGUCUUGCGCUCGACCAGAAAGUCAGUAAUCAUUUUAAGGGUA [A110G U122A]: 0.11. On to GUUAACGGUCAUAGGCCAUGGAAACUAGGAGCACCAUUUCGCUGCCAGUGAAGAAAUGAACAAAGAAAAUCUGGGCCAGGCAGGCAUCAAAAGAAAUAGUCUUGCGCUCGACCAGAAAGUCUGUAAUCAUUUUAUGGGUA [A110G A135U], for which the self-cleavage stood at 0.12. With GUUAACGGUCAUAGGCCAUGGAAACUAGGAGCACCAUUUCGCUGCCAGUGAAGAAAUGAACAAAGAAAAUCUGGGCCAGGCAGGCAUCAAAAGAAAUAGUCUUGCGCUCGACCAGAAAGUCUGUAAUCACUUUAAGGGUA [A110G U130C], the self-cleavage turned out to be 0.09. In the case of GUUAACGGUCAUAGGCCAUGGAAACUAGGAGCACCAUUUCGCUGCCAGUGAAGAAAUGAACAAAGAAAAUCUGGGCCAGGCAGGCAUCAAAAGAAAUAGUCUUGCGCUCUACCAGAAAGUCUGUAACCAUUUUAAGGGUA [A110U U127C], the self-cleavage amounted to 0.44. For GUUAACGGUCAUAGGCCAUGGAAACUAGGAGCACCAUUUCGCUGCCAGUGAAGAAAUGAACAAAGAAAAUCUGGGCCAGGCAGGCAUCAAAAGAAAUAGUCUUGCGCUCGACCAGAGAGUCUGUAAUCAUUUUAAGGGUA [A110G A117G], the self-cleavage was found to be 0.16. On to GUUAACGGUCAUAGGCCAUGGAAACUAGGAGCACCAUUUCGCUGCCAGUGAAGAAAUGAACAAAGAAAAUCUGGGCCAGGCAGGCAUCAAAAGAAAUAGUCUUGCGCUCGACCAGAAAGUCUGUAAUCAUUCUAAGGGUA [A110G U132C], for which the self-cleavage was determined as 0.07.

In the case of GUUAACGGUCAUAGGCCAUGGAAACUAGGAGCACCAUUUCGCUGCCAGUGAAGAAAUGAACAAAGAAAAUCUGGGCCAGGCAGGCAUCAAAAGAAAUAGUCUUGCGCUCUGCCAGAAAGUCUGUAAUCAUUUUAAGGGUA [A110U A111G], the self-cleavage came to 0.01. In the case of GUUAACGGUCAUAGGCCAUGGAAACUAGGAGCACCAUUUCGCUGCCAGUGAAGAAAUGAACAAAGAAAAUCUGGGCCAGGCAGGCAUCAAAAGAAAUAGUCUUGCGCUCGACCAGAAAGUCUAUAAUCAUUUUAAGGGUA [A110G G123A], the self-cleavage came to 0.29. In the case of GUUAACGGUCAUAGGCCAUGGAAACUAGGAGCACCAUUUCGCUGCCAGUGAAGAAAUGAACAAAGAAAAUCUGGGCCAGGCAGGCAUCAAAAGAAAUAGUCUUGCGCUCAGCCGGAAAGUCUGUAAUCAUUUUAAGGGUA [A111G A114G], the self-cleavage came to 0.02. Take GUUAACGGUCAUAGGCCAUGGAAACUAGGAGCACCAUUUCGCUGCCAGUGAAGAAAUGAACAAAGAAAAUCUGGGCCAGGCAGGCAUCAAAAGAAAUAGUCUUGCGCUCAGCCCGAAAGUCUGUAAUCAUUUUAAGGGUA [A111G A114C]: the self-cleavage came out at 0. As for GUUAACGGUCAUAGGCCAUGGAAACUAGGAGCACCAUUUCGCUGCCAGUGAAGAAAUGAACAAAGAAAAUCUGGGCCAGGCAGGCAUCAAAAGAAAUAGUCUUGCGCUCAGCCUGAAAGUCUGUAAUCAUUUUAAGGGUA [A111G A114U], the self-cleavage is 0. The same measure for GUUAACGGUCAUAGGCCAUGGAAACUAGGAGCACCAUUUCGCUGCCAGUGAAGAAAUGAACAAAGAAAAUCUGGGCCAGGCAGGCAUCAAAAGAAAUAGUCUUGCGCUCGACCAGAAAGUGUGUAAUCAUUUUAAGGGUA [A110G C121G]: 0.2; for GUUAACGGUCAUAGGCCAUGGAAACUAGGAGCACCAUUUCGCUGCCAGUGAAGAAAUGAACAAAGAAAAUCUGGGCCAGGCAGGCAUCAAAAGAAAUAGUCUUGCGCUCGACCAGAAAGCCUGUAAUCAUUUUAAGGGUA [A110G U120C]: 0.06. With GUUAACGGUCAUAGGCCAUGGAAACUAGGAGCACCAUUUCGCUGCCAGUGAAGAAAUGAACAAAGAAAAUCUGGGCCAGGCAGGCAUCAAAAGAAAUAGUCUUGCGCUCGACCAGAAAGUCUGUAAUCAUCUUAAGGGUA [A110G U131C], the self-cleavage is 0.08. As to GUUAACGGUCAUAGGCCAUGGAAACUAGGAGCACCAUUUCGCUGCCAGUGAAGAAAUGAACAAAGAAAAUCUGGGCCAGGCAGGCAUCAAAAGAAAUAGUCUUGCGCUCGACCAGAAAGUCUGUAAUCAUUUUAAGGGUA [A110G], the self-cleavage was determined as 0.13.

GUUAACGGUCAUAGGCCAUGGAAACUAGGAGCACCAUUUCGCUGCCAGUGAAGAAAUGAACAAAGAAAAUCUGGGCCAGGCAGGCAUCAAAAGAAAUAGUCUUGCGCUCUACCAGAAAGUCUGUAAUCAUUUUAAGGGUA [A110U]: the self-cleavage stood at 1.34.

Regarding GUUAACGGUCAUAGGCCAUGGAAACUAGGAGCACCAUUUCGCUGCCAGUGAAGAAAUGAACAAAGAAAAUCUGGGCCAGGCAGGCAUCAAAAGAAAUAGUCUUGCGCUCCACCAGAAAGUCUGUAAUCAUUUUAAGGGUA [A110C], the self-cleavage was found to be 0.31. Turning to GUUAACGGUCAUAGGCCAUGGAAACUAGGAGCACCAUUUCGCUGCCAGUGAAGAAAUGAACAAAGAAAAUCUGGGCCAGGCAGGCAUCAAAAGAAAUAGUCUUGCGCUCAGCCAGAAGGUCUGUAAUCAUUUUAAGGGUA [A111G A118G], the self-cleavage came out at 0.01. Turning to GUUAACGGUCAUAGGCCAUGGAAACUAGGAGCACCAUUUCGCUGCCAGUGAAGAAAUGAACAAAGAAAAUCUGGGCCAGGCAGGCAUCAAAAGAAAUAGUCUUGCGCUCCACCAGAAAGUCUGUAAUCAUUUUGAGGGUA [A110C A134G], the self-cleavage came to 0.41. The figure for GUUAACGGUCAUAGGCCAUGGAAACUAGGAGCACCAUUUCGCUGCCAGUGAAGAAAUGAACAAAGAAAAUCUGGGCCAGGCAGGCAUCAAAAGAAAUAGUCUUGCGCUCACCCAGAAAGUCUGUAAUCAUCUUAAGGGUA [A111C U131C] is 0; for GUUAACGGUCAUAGGCCAUGGAAACUAGGAGCACCAUUUCGCUGCCAGUGAAGAAAUGAACAAAGAAAAUCUGGGCCAGGCAGGCAUCAAAAGAAAUAGUCUUGCGCUUAACCAGAAAGUCUGUAAUCAUUUCAAGGGUA [C109U U133C] it is 0.37. Take GUUAACGGUCAUAGGCCAUGGAAACUAGGAGCACCAUUUCGCUGCCAGUGAAGAAAUGAACAAAGAAAAUCUGGGCCAGGCAGGCAUCAAAAGAAAUAGUCUUGCGCUCCACCAGAAAGUCAGUAAUCAUUUUAAGGGUA [A110C U122A]: the self-cleavage worked out at 0.24. In the case of GUUAACGGUCAUAGGCCAUGGAAACUAGGAGCACCAUUUCGCUGCCAGUGAAGAAAUGAACAAAGAAAAUCUGGGCCAGGCAGGCAUCAAAAGAAAUAGUCUUGCGCUCAGCCAGGAAGUCUGUAAUCAUUUUAAGGGUA [A111G A116G], the self-cleavage turned out to be 0.01. Take GUUAACGGUCAUAGGCCAUGGAAACUAGGAGCACCAUUUCGCUGCCAGUGAAGAAAUGAACAAAGAAAAUCUGGGCCAGGCAGGCAUCAAAAGAAAUAGUCUUGCGCUCAGCCAGUAAGUCUGUAAUCAUUUUAAGGGUA [A111G A116U]: the self-cleavage worked out at 0.04. Regarding GUUAACGGUCAUAGGCCAUGGAAACUAGGAGCACCAUUUCGCUGCCAGUGAAGAAAUGAACAAAGAAAAUCUGGGCCAGGCAGGCAUCAAAAGAAAUAGUCUUGCGCUCUACCAGAAAGUCUGUAAUCAUUCUAAGGGUA [A110U U132C], the self-cleavage amounted to 0.71.

GUUAACGGUCAUAGGCCAUGGAAACUAGGAGCACCAUUUCGCUGCCAGUGAAGAAAUGAACAAAGAAAAUCUGGGCCAGGCAGGCAUCAAAAGAAAUAGUCUUGCGCUCUACCAGAAAGUCUGUAAUCAUUAUAAGGGUA [A110U U132A]: the self-cleavage came out at 1.8.
